The results in this text go back to doi:10.1101/2023.04.27.538407.

The target in test [1] is MYPT1 (endogenous, human platelets) (human (endogenous in platelets)). Nature of the test: proximity ligation.
In test [2] the target is MYPT1-C2 peptide 35, R694 replaced by alanine (human). As to the kind of experiment: peptide or protein array.
Test [3] addresses MYPT1-C2 peptide 35, R693 replaced by alanine (human). Nature of the test: peptide or protein array.
Test [4] has as its target MYPT1-C2 peptide 35, S695 replaced by alanine (human). Nature of the test: peptide or protein array.

Chain of MYPT1 (endogenous, human platelets) (human (endogenous in platelets)) (O14974 whole entry): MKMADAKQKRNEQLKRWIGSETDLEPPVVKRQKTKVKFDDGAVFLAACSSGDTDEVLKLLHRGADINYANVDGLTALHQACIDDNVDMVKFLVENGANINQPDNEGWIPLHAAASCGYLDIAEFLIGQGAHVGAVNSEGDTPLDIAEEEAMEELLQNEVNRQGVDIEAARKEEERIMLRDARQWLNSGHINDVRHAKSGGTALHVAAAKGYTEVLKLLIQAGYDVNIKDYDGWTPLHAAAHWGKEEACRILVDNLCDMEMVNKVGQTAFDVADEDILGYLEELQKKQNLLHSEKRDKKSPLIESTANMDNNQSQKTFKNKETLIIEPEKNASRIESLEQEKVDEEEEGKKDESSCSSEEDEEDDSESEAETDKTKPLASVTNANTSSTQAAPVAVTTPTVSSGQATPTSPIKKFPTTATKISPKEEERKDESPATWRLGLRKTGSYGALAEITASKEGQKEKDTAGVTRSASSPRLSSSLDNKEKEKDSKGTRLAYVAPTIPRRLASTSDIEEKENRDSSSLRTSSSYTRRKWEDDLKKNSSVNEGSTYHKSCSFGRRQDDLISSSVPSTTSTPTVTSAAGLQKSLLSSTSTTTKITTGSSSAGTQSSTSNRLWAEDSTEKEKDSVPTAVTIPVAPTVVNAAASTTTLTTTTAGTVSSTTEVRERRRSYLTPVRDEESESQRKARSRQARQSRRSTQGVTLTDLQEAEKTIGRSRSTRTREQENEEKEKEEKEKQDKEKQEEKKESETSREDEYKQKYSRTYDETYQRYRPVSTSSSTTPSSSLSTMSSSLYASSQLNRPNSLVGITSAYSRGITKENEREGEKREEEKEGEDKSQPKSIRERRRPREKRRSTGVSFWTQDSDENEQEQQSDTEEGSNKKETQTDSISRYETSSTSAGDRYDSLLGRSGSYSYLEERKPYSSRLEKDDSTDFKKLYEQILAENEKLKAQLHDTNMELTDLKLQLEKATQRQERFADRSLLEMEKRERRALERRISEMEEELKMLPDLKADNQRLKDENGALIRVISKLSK

In the case of “PKA-RIIα (endogenous, human platelets) (from UniProt P13861 1-404) (natural protein)”, in test [1], the PLA dots per platelet (dots per platelet) stood at 1.01. On the same count and under the same terms, next, “PKA-RIIβ (endogenous, human platelets) (from UniProt P31323 1-418) (natural protein)”: 0.97.

As for “His-tagged PKA-RIIβ (from UniProt P31323 1-418) (natural protein)”, the reduction of binding against the non-mutated peptide in test [2], in test [3] and in test [4] was 50% in each case. As for “His-tagged PKA-RIβ (from UniProt P31321 1-381) (natural protein)”, the reduction of binding against the non-mutated peptide in test [2], in test [3] and in test [4] was 50% in each case.

“PKA-RI (endogenous, human platelets) (from UniProt P10644 1-381) (natural protein)” yielded a PLA dots per platelet (dots per platelet) in test [1] of 1.48.
